Laboratory results published in the supplement of paper PMC9170038.

Test system: MS2 coat protein
Experiment: apparent KD of MS2 coat protein; designed switch direction (-1 OFF switch, 1 ON switch): -1; higher = weaker reporter binding
Procedure, shortened: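 Designed RNA switches with common flanks were made on Illumina chips by stalled E. coli RNA polymerase. Titration with SNAP-549-labelled MS2 coat protein doubled from 0.7 or 1.5 nM up to 3 µM. Apparent KD is each design's median over clusters after curve-fitting normalised fluorescence.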

[1] = Eterna round: R95, input ligand: FMN 200 uM
[2] = Eterna round: R95, input ligand: microRNA oligo, concentration not stated
[3] = Eterna round: R95, input ligand: none
[4] = input ligand: microRNA oligo, concentration not stated

| Sequence | apparent KD of MS2 coat protein [1] [nM] | apparent KD of MS2 coat protein [2] [nM] | apparent KD of MS2 coat protein [3] [nM] | apparent KD of MS2 coat protein (input ligand: FMN 200 uM) [nM] | apparent KD of MS2 coat protein (input ligand: none) [nM] | apparent KD of MS2 coat protein [4] [nM] |
| --- | --- | --- | --- | --- | --- | --- |
| AGAAAGCAAGGAUAUACGAGGAGAAGGUGGAAAGUUAAAGGACAUGAGGAUCACCCAUGUAGAAGGUGCGAGAA [JR_Exclu2_Sub043] (puzzle: Exclusion 2) | 79.3 | 46.2 | 55.4 | – | – | – |
| AGAAAGGAAGGAUAUACAAGAAAGCCGGGCAACGUCUCAGAACAUGAGGAUCACCCAUGUAGAAGGUCCAGGAA [Tisoiste] (puzzle: Exclusion 2) | 92.3 | 32.6 | 32.8 | – | – | – |
| AGAACAUCAGGAUAUCCAUGACACUACAUGAGGAUCACCCAUGUGAAUCUCCUCAAGGCGGGAGAAGGGAUGUUUG [Eternabot (L1) Solution 34] (Eterna round: R97, puzzle: Exclusion 5) | – | – | – | 272 | 86.7 | – |
| AGACACUGAGGAUAUACAUGAGGAUCACCCAUGUAUGGGAAAUACGAAUGUAUUAGUUGUAGAAGGUGGUGUCG [Eternabot (L1) Solution 10] (Eterna round: R97, puzzle: Exclusion 3) | – | – | – | 183 | 199 | – |
| AGACACUUAGGAUAUCAGGCAAUGCACAUGAGGAUCACCCAUGUGGUCUUGGUCCGGGACUGAGAAGGAAGAGUCC [EX5 B.10] (Eterna round: R97, puzzle: Exclusion 5) | – | – | – | 20.1 | 19 | – |
| AGACAGUCAGGAUAUACAUGAGGAUCACCCAUGUUAAGAAAAGAAAGGGCAGGAAGAGGUAGAAGGGACAAGAA [JR_Exclu3_Sub032] (puzzle: Exclusion 3) | 28.8 | 28.5 | 32.8 | – | – | – |
| AGACUGCUGCGAGGAUAUACAUGAGGAUCACCCAUGUUUUCCUGUGAGGCAUAGCCUCACAGGAUGUAGAAGGCGCAGUAGUCA [Mat - Exclusion NG 2 - Mod of JL - D30] (Eterna round: R96, puzzle: Exclusion NG 2) | – | – | – | 13.8 | 11.9 | 11.2 |
| AGAGAAUACUCAGGAUAUCUGAAUAGAAAGAGAAGAGAAGGGAGACAUGAGGAUCACCCAUGUGAAGUCUUGAGGCUGCAUGGA [Prohibition 25 - Jieux - Exclusion NG 1] (Eterna round: R96, puzzle: Exclusion NG 1) | – | – | – | 83.5 | 106 | 145 |
| AGAGAAUAGUCAGGAUAUGUGAAUAGAUAGAGAACAGAAGGGACACAUGAGGAUCACCCAUGUGAAGUCUUGAGGCUGCGUGGA [Prohibition 21 - Jieux - Exclusion NG 1] (Eterna round: R96, puzzle: Exclusion NG 1) | – | – | – | 22.1 | 20.3 | 17.5 |
| AGAGAGUCAGGAUAUCGGAGGGCGAGGAGAGGAGAGAGAGACGAGAAGGGACAUGAGGAUCACCCAUGUAGGUG [JR_Exclusion4)Sub018] (puzzle: Exclusion 4) | 197 | 268 | 400 | – | – | – |
| AGAGUGCUGCGAGGAUAUACAUGAGGAUCACCCAUGUUUUCGUGUGAGGCAAAGCCUCACACGAUGUAGAAGGCGCAGUACUCA [Mat - Exclusion NG 2 - Mod of JL - D36] (Eterna round: R96, puzzle: Exclusion NG 2) | – | – | – | 13.2 | 14.6 | 9.73 |
| AGAGUGGAGACAGGAUAUGAGAAUAGAUAGAAAUCAGAAGGGUCACAUGAGGAUCACCCAUGUAAAGUCUUGAGGAUGAGUGAU [Prohibition 1 - Jieux - Exclusion NG1] (Eterna round: R96, puzzle: Exclusion NG 1) | – | – | – | 156 | 81.7 | 65.3 |
| AGAUAGUGCUGAGGAUAUCAGAAUAGAAAGAAAUGAGAAGGCGGACAUGAGGAUCACCCAUGUGAGGUCUUGAGACUACAUGGU [Prohibition 38 - Jieux - Exclusion NG 1] (Eterna round: R96, puzzle: Exclusion NG 1) | – | – | – | 210 | 77.3 | 65.8 |
| AGAUAGUUAGGAUAUACAUGAGGAUCACCCAUGUAGAAAAGUGGCUAAUGAGACUCCGGUAGAAGGAACAAAAU [Isanqurama] (puzzle: Exclusion 3) | 41.7 | 20 | 27.7 | – | – | – |
| AGAUCUAGGACAGGAUAUACGGAUGUCUUCAUCGAAGAUGAAGACAUCACAUGAGGAUCACCCAUGUAGAAGGGUCCUAGAUCA [Omei Exc(NG) 2A] (Eterna round: R96, puzzle: Exclusion NG 2) | – | – | – | 12.3 | 14.3 | 10.9 |
| AGAUGACAUGAGGAUCACCCAUGUUAGGAUAUUUAAGCCUGUACGCGCGUACUAGACGAGAGAAGGGACAUGGC [Eternabot (Original) Solution 39] (Eterna round: R97, puzzle: Exclusion 1) | – | – | – | 33.9 | 30.7 | – |
| AGAUGCUCAAGUCGACAUGAGGAUCACCCAUGUACAGUUAAUGAGGAUAUCCGAGAUAAAUAAUAGGAGAAGGUAUGAUCAUGA [Ex NG3 #5] (Eterna round: R96, puzzle: Exclusion NG 3) | – | – | – | 86.7 | 59.5 | 175 |
| AGAUGCUCGAGUCGACAUGAGGAUCACCCAUGUACAGUUAGUGAGGAUAUCGGAGACACAUAGUAUGAGAAGGCGCGAACGUGA [Ex NG3 #15] (Eterna round: R96, puzzle: Exclusion NG 3) | – | – | – | 224 | 97.8 | 52.1 |
| AGAUGCUCGAGUCGACAUGAGGAUCACCCAUGUACAGUUAGUGAGGAUAUCUGAGACACAUAGUAGGAGAAGGCGCGAACGUGA [Ex NG3 #14] (Eterna round: R96, puzzle: Exclusion NG 3) | – | – | – | – | – | 58.6 |
| AGAUGGCGAGGAUAUACAUGAGGAUCACCCAUGUGAGAAGAAGAAGUGAGGAAGAAAAGUAGAAGGCGCUGUCA [Mat - Exclusion 3 - Mod of Salish D20] (puzzle: Exclusion 3) | 145 | 50.3 | 44.9 | – | – | – |
| AGAUGUAGAUACCGAUCCUACAUGAGGAUCACCCAUGUAGCUAGACGUGCACGCGUAGCUCGUCAGACUACCAGUAG [salish99_TOv1_r3_086] (puzzle: Sensor v3, turn-off variant 1) | 372 | 336 | 363 | – | – | – |
| AGCAGACGAGGAUAUGAUAAUUAAUACAUGAGGAUCACCCAUGUAAUACUGAUCCAUGGAUCAGAAGGCGUCUGCU [E5/4-A1] (Eterna round: R97, puzzle: Exclusion 5) | – | – | – | 27.1 | 17.6 | – |
| AGCAUGCAGCAGGAUAUCGAUCCGCAGUAUGAUCGAGAAGGGCUGACAUGAGGAUCACCCAUGUGCGUCCUAGG [jl-ex6-4.42 ViennaUCT mod] (Eterna round: R97, puzzle: Exclusion 6) | – | – | – | 295 | 66.3 | – |
| AGCAUGCAGUAGGAUAUCGAUCCACAAUAUGAACGAGAAGGGCUGACAUGAGGAUCACCCAUGUGCGUCCGAAG [Ersoontiri] (Eterna round: R97, puzzle: Exclusion 6) | – | – | – | 21 | 16.8 | – |
| AGCAUGCUAGGAUAUACGGGACAUUAGGGUUCGUUGUAUGGACAUGAGGAUCACCCAUGUAGAAGGAGCGUGCA [Mat - Exclusion 2 - Mod of Hyphema - D94] (puzzle: Exclusion 2) | – | 23.5 | – | – | – | – |
| AGCAUGUAAGGAUAUGCAACACAGCUUUCAAUCGCUGUGCCGCAGAAGGUACAUGAGGAUCACCCAUGUGCUCC [Anesonza] (puzzle: Exclusion 4) | – | 75.6 | – | – | – | – |
| AGCAUGUGAGGAUAUGCGAAGGGAAGGAGAGGGAAAGAGAAGCAGAAGGCACAUGAGGAUCACCCAUGUAAGGG [AK-MS2ROC-r4-exclusion4-8.1] (Eterna round: R97, puzzle: Exclusion 4) | – | – | – | 63.9 | 969 | – |
| AGCCACAGAGGAUAUACAUACAUCCAGUAGUAGAGAAUACUACAUGAGGAUCACCCAUGUAGAAGGCUGUGGCA [Omei Ex2 BD B14] (Eterna round: R97, puzzle: Exclusion 2) | – | – | – | 316 | 438 | – |
| AGCCCUGCAGGAUAUGCCCGGGAUAACAUGAGGAUCACCCAUGUGACCGAUUGUUAUCCUGCAGAAGGGCUAGGGA [JL-EX5-4.11 ViennaUCT mod] (Eterna round: R97, puzzle: Exclusion 5) | – | – | – | 126 | 49 | – |
